Biological target: FcγRIIIa (UniProt P08637)
Assay: SPR

Sequence of UniProt P08637 (P08637 17-254): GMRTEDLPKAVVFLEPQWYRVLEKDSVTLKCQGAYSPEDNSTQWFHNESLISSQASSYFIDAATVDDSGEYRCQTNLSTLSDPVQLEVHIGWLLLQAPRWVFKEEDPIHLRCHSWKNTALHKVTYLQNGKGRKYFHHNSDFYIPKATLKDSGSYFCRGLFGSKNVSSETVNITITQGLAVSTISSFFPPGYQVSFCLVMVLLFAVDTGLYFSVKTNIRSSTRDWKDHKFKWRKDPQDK

- Kd: 150 nM
Substance: JSKN003 (bispecific antibody)

Source: paper PMC12188319
